Data on 1 substance can be found in paper PMC9001700.

Assay in all cases: BLI
Assay [1] addresses MERS-CoV stem helix peptide (MERS-CoV).
The target of assay [2] is SARS-CoV-2 stem helix peptide 1145-[…]-1167 (SARS-CoV-2).
Assay [3] has as its target OC43 stem helix peptide (HCoV-OC43).
For assay [4], the target named is HKU1 stem helix peptide (HCoV-HKU1).
The target in assay [5] is MERS-CoV stem helix peptide (MERS-CoV). This is another data set of the same source.
The target of assay [6] is HCoV-OC43 stem helix peptide (HCoV-OC43).
Assay [7] deals with HCoV-HKU1 stem helix peptide (HCoV-HKU1).
For assay [8], the target named is SARS-CoV-2 stem helix peptide 1145-1167 (SARS-CoV-2).

Like-named read-outs stand apart in the source and are kept apart here.

Regarding CV3-25 Fab, the Kd (as a rule, the constant that tells how readily two partners part at equilibrium) in assay [1] worked out at 20.4 nM; in assay [2], 5.23 nM; in assay [3] it was 39.3 nM; in assay [4], 31 nM; in assay [5], 20 nM; in assay [6], 40 nM. Further, the Kd was 31 nM in assay [7] and 5.2 nM in assay [8]. The dissociation rate constant (koff) (as a rule, the first-order rate constant of dissociation) in assay [1] worked out at 0.000669 s⁻¹; in assay [2] it was 0.000159 s⁻¹; in assay [3], 0.000613 s⁻¹; in assay [4], 0.000676 s⁻¹. Further, the kon (usually the second-order rate constant of association) in assay [1] came out at 33000 M⁻¹ s⁻¹; in assay [2] it was 30000 M⁻¹ s⁻¹; in assay [3] it was 17000 M⁻¹ s⁻¹; in assay [4], 23000 M⁻¹ s⁻¹.
